# The nanobody polyreactivity screen of Harvey et al. (2022)
# Assay: yeast display, Sf9 membrane polyspecificity reagent, FACS + sequencing; frameworks hold sequencing errors
# In short: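 A nanobody's polyreactivity label depends on the gate it was sorted from. Yeast display cells were stained with 10% biotinylated, detergent-solubilized Sf9 membrane reagent for 1 hour at 4 °C, enriched on streptavidin microbeads and sorted by FACS. The low and high (top ~1%) gates were set on anti-HA fluorescence for expression and streptavidin fluorescence for reagent binding.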
row,Sequence,polyreactivity (PSR sort gate)
1,QVQLVESGGGLVQAGGSLRLSCAASGRTFVRYAMGWYRQAPGKERELVAAISWSGGSTYYADSVKGRFTISRDNAKNTVYLQMNSLKPEDTAVYYCAADDETPSSHEEDYWGQGTQVTVSS,high polyreactivity
2,QVQLVETGGGLVQAGGSLRLSCAASGRTFQYYAMGWYRQATGTERELVAAITSGGSTYYADSVKGRFTISRDNAKKTVYLQMNSLKPEDTAVSYCAATFYYSGHDDYWGQVTQVTVSS,low polyreactivity
3,QVQLVESGGCLVQAGGSLRLSCAASGSTLSYYAMGWYRQAPGKERELVAAINKSVTRTYYADSVKGRFTISRDNAKNTVYLQMNSLKPEDTAVYYCAASVPYYNGYYYNAYEYWGQGTQVTVSS,high polyreactivity
4,QVQLVESGGGIVQAGGSLRLSCAASGRTFDWYAMGWSRQAPGKERELVAAIDSIGGDTYYADSVKGRFTISRDNAKNTVYLQMNSLKPEDTAVYYCAALPWYDWEYEYWGQGTQVTVSS,high polyreactivity
5,QVQLVESGGGLVQAGGSLRLSCAASGRIFGSYVMGWYRQAPGKERELVAAISYSGGRTYYADSVKGRFTISRDNAKNTVYLQMNSLKPEDTAVYYCAKESSGSRYQYYYWGQGTQVTVSS,high polyreactivity
6,QVQLVESGGGIVQAGGRLRLSCAASGMIFYFYALGWYRPAPGKERELVAAITSGARTYYADSVKGRFTISRDNAKNTVYLQINSLKPEDTAVYYCAADVKRDRVWGGDYWGQGTQVTVSS,low polyreactivity
7,QVQLVESGGGLVQAGGSLRLSCAASGFIFADNAMGWYRQAPGKERELVAGITSGGITNYADSVKGRFTISRDNAKNTVYLQMNSLKPEDTAVYYCAVYYRRWFSRYDYWGQGTQVTVSS,low polyreactivity
8,QVQLVESGGGLVQAGGSLRLSCAASGSTISGYAMGWYRQAPGKERELVATISRGGSTNYADSVKGRFTISRDNAKNTVYLQMNSLKPEDTAVYNCAAQTYVWWVKYHSWGQGTQVTVSS,low polyreactivity
9,QVQLVESGVGLVKAGGTLRLSCAASGGIFDYNAMGWYRQAPGKERELVAYYADSVKGRFTLSRDNAKNTVYLQMNSLKPEDTAVYYCAVDGGEFSSYGYWGQGTQVTVSS,low polyreactivity
10,QVKLVESGGGLVQAGGSLRLSCAASGRTFASNAMGWYRQAPGKERELVADISSSGGTTYYADSVKGRFTISRDNAKNTVYLQMNSLKPEDTAVYYCAAVSSQDDPVKAWDYEYWGQGTQVTVSS,low polyreactivity
11,QVQLVESGGGLVQAGGSLRLSCAASGRILYGYVMGWYRQAPGKERELVAAISWSGARTYYADSVKGRFTISRDNAKNTVYLQMNSLKPEDTAVYYCAARVPSWKYDYWGQGTQVTVSS,high polyreactivity
12,QVQLVESGGGLVQAGGSLRLSCAASGFIFYFNAMGWYRQAPGKERELVAAISASGGRTYFADSVKGRFTISRDNAKNTVYLLMNSLKPEDTAVYYCAARGGSYYFRRYNYWGQGTQVNVSS,high polyreactivity
13,QVQLQDSGGGLVQAGGSLRLSCAASGTISDRAGMGWYRQAPAQNAIVATIDRGTNTNYADSVKGRFTISRDNAKNTVYLQMNSLKPEDTAVYNCAADGRYYIYLDYWGQGTQVTVSS,low polyreactivity
14,QVQLVESGGGLVQAGGSLRLSCAAAGSTFSSYAMGWYRQAPGKERELVAAITSSGGSTYYADSVKGRFSISRDNAKNTVYIQKNSLKPEDTAVYYCAAADVIFWLYYYWGQGTQVTVSS,low polyreactivity
15,QVHLVESRGGLIQAGGSLRLSCAASGSLYVYNALGWYRQAPGKERELVAGITFIGGSTYYADSVKGRFTISRDNAKNTVYLQMNSLKPEDTAVCYSNADVAPGIFYGYDSWGQGTQVTVSS,low polyreactivity
16,QVQLVESGGGLVQAGGSLRLSCAASGSIFPHNAMGWYRQAPGKERELVAAITTIGGSTYYADSVKGRFTISRDNAKNTVYLQRNSLKPEDTAVYYCAADCATVLGFYTYDYWGQGTQVTVSS,low polyreactivity
17,QVQLVESGGGLVQAGGSLRLSCAASGFTFHKYAMGWYRQAPGKERELVAAISWSGDRTYYADSVKGRFTISRDNAKNTVYLQMNSLKPEDTAVYYCAAATRYSFYIKYDYWGQGTQVTVSS,high polyreactivity
18,QLQLVESGGGLVQAGGSLRLSCAASGSTFRWYAKGWYRQAPGKERELVAAISYSGGRTYYADSVKGRFTISRDTAKNTVYLQMNSLKPEDTAVYYCAADYVESKSLLEYWGQGTQVTVSS,low polyreactivity
19,QVQLVESGGGLVQAGGSLRLSCAASGRTFTGYAMGWYRQAPGKERELVAAISRRGASTYYADSVKGRFTISRDNAKNTVYLQMNSLKPEDTAVYYCAAYLYGLWSVGRDYWGQGTQVTVSS,high polyreactivity
20,QDQLVESGGGLVQAGGCLRLSCAASGSIFYIYGRGWYRQEPGKERELVAAISRSGGRTYYADSVKGRFTISRDTANNTVYLQMNSLKPEDTAVYYCAARDHYSTGGMNYWGQGTQVTVSS,high polyreactivity
21,QDQLVDSGGGLVQAGGSLRLSCAASGYTFWDYAMGWYRQAPGKEREFVAGISFSDGGTYYADSVKGRFTISRDNAKNTVYLQMNSLKPEDTAVYYCAATYPYSWVYSGYYYWGQGTQVTVSS,low polyreactivity
22,QVQLVESGGGLVQAGGSLRLSCAASGRILKSYAMGWCRHAPGKERELVAAIRSGGSTYYADSVKGRFTISRDNAKNTVYLQMYSLKPEDTAVYYCNRVTRTWKVNYHYWGQGTQVTVSS,high polyreactivity

row,Sequence,polyreactivity (PSR sort gate)
1,QVQLVESGGGLVQAGGRLRLICAAYGSTFSLYALGWYRQAPGKERELVADINSGGGTYYADSVKGRFTISRDNAKNTVYLQMNSVKPEDTAVYYCNAPVARGEASYYWGHGTQVTVSS,high polyreactivity
2,QVQLVESGGGLVLAGGSLRLSCAASGRTFKENAKGWYRQAPGKARELVAVINSGGRTYYAVSVKGSFTISRDNAKNTVYLQMNSLKPEDSAVYYCAAYSRSKESGYWGQGTQVTVSS,high polyreactivity
3,QVQLVESAGGLVQAGGSLRLSCAASGRTFYPYAMGWYRQAPGKARELVAAIRSSGGTTYYADSVKGRFTISRDNAKNTVYVQMNSLKPEDTAVYYCAAFVDRQGGYYWGQGTQVTVSS,high polyreactivity
4,QVQLVESGGGLVQAGGSLRLSCAASGSIFGKNAMGWYRQAPGKERELVAAITWSGGSTYYADSVKGRFTISRDNAKNTVYLQMNSLKPEDTAVYYCNAVRVRVTSHRIRQLDYGYWGQGTQVTVSS,low polyreactivity
5,QVQLVESGGGLVQAGGSLRLSCADSGIIFHEYAMGWYRQAPGKERELVASISWNDGSTYADSVKGRFTISRDNAKNTVYLQMNSLKPEDTAVYYCAADYPYYPFSSIYDYWGQGTQVTVSS,low polyreactivity
6,QVQLVESGGGLVQAGGSLRLSCAASGSIFFPYVMGWYRQAPGKERELVAAITYRAGSTYYADSVKGRFTISRDHAKNTFYLQMNSLKPEDTAVYYCNKEAAPLGFVTSYYGRDYWGQGTQVTVSS,low polyreactivity
7,QVQLLESGGGLVQAGGSLRLSCAASGYTFASYAMGWYRQAPGKERELVASISNGGGTNYADSVKGLFRISRDNAKNTVYLQMNSLKPEDTAVYYCAKRYRYYSHSYYYWGQCTQVTVSS,high polyreactivity
8,QVQLVESGGGLVQAGGSLRLSCAASGRIFDEYAMGWYRQAPGKERELVAAITSDGTTNYADSVKGRFTISRDNAKNTVYLQMNSLKPEDTAVYYCNAARPQSEPASQLDLYGYDYWGQGTQVTVSS,low polyreactivity
9,QVQLVESGGGLVQAGGSLRLSCAASGSIFIGSVMGWYRQAPGKERELVADITWSGGSTYYADSVKGRFTISRANAKNTVYLQMNSLKPEDTAVYYCAARTFVIGDYDYWYALDSWGQGTQVTVSS,low polyreactivity
10,QVQLVESGGGLVQAGGSLRLICAASGRTFTRYAMGWYRQAAGKERELVAAITSTGSTYYADSVKGRFTISRDNAKNTVYLQMNSLKPEDTAVYYCNKVGIRYYYGYDYWGQGTQVTVSS,high polyreactivity
11,QVQLVESGGGLVQAGGSLRLSCAASGFIFFQNAMGWYRQAQGKERELVAAISRRGGSTYYADSVKGRFTISRDNAKNTVYLQMNSLKPEDTAVYYCAARSRGDLASLYTGDYWGQGTQVTVSS,low polyreactivity
12,QVQLVESGAGLVQAGGSLRLSCAASGIISYRNGMGWYRQAPGKERELVASISKRADSTYYADSVKGGFTLSRDNAKNTVYLQMNSLKPEDTAVYYCAANFRDWHRYYPAGYLRRGYWGQGTQVTVSS,high polyreactivity
13,QVQLVESGGGLVQAGGSLRLSCAASGFIFRYYTMGWYRQAPGKERELVATITSGGSTYYADSVKGRFTISCDNAKNTVYLQMNSLKPEDTAVYYCAKVRDVLWRFNYWGQGTQVTVSS,high polyreactivity
14,QVQLVESGGGLVQAGGSLRLSCAASGGIFDTYAMGWYRQAPGKERELVAAISANGGETYYADSVKGRFTISRDNAKTTVYLQMNSLKPEDTAVYYCAADGFLPILHPVPWSYYYPFGYWGQGTQVTVSS,low polyreactivity
15,QVQLVESGGGLVQAGGSLRLSCAASGIIFSPNAMGWYRQAPGKEMELVAGISSGGSTYYADSVKGRFTISRDNAKNTVYFQMNSLKPEDTAVYYCNRGWAHSNAKFDYWGQGTQVTVSS,high polyreactivity
16,QVQLVESGGGLVQAGGSLRLSCAASGRTIRYYVMGWYRQAPGKERELVAAISSGGRTNYADSVKGRFTISRDNAKNTVYLQMNSLKPEDTAVYYCAADLWYYWTATRAFDYWGQGTQVTVSS,high polyreactivity
17,QVQLVESGGGLVQAGGSLRLSCAASGFIFSIYAMGWYRQAPGKERELVAAISKSGGRTYYADSVKGRFTISRDNAKNTVYLQMNSLKPEDTAVYYCAVDPYYKYDYWGQGTQVTVSS,high polyreactivity
18,QVQLVESGGGLVQAGGSLRISCAASGRICWNYALGWYRQAPGKEMELVASISYRGGSTYYADSVKGRVTISRDYAKNTVYLQMNSLKPEDTAVYYCAARSRQARRTDYGYWGQGTQVTVSS,high polyreactivity
19,QVQLVESGGGLVQAGGSLRLSCAASGRTFRGNALGWYRQAHGKERELVAAITGTGGSTYYADSVKGRFTISRDNAKNTVYLQRNRLKPEDTAVYYCAAVLRGHNGLKFEYWGQGTQVTVSS,high polyreactivity
20,QVQLVESGGGLVQAGGSLRLSCAASGRTFRANTMGWYRLAPGKERELVAAISHSGGSTYYADSVKGRFTISRDNAKNTVYLQMNSLKPEDTAVYYCATDGGSYSWASPRVDYWGQGTQVTVSS,low polyreactivity
21,QVQLVESGGGLVQAGGSLRLSCAASGGTFFQYAMGWYRQAPGKERELVAAITWSSGSTYYADSVKGRFTISRDNAKNTVYLQMNSLKPEDTAVYYDDYYTYGDYWGQGTQVTVSS,low polyreactivity
